biological target: Androgen receptor (AR) (UniProt P10275 P10275:1-920); test: EMSA
Sequence (P10275 whole entry, one chain of several): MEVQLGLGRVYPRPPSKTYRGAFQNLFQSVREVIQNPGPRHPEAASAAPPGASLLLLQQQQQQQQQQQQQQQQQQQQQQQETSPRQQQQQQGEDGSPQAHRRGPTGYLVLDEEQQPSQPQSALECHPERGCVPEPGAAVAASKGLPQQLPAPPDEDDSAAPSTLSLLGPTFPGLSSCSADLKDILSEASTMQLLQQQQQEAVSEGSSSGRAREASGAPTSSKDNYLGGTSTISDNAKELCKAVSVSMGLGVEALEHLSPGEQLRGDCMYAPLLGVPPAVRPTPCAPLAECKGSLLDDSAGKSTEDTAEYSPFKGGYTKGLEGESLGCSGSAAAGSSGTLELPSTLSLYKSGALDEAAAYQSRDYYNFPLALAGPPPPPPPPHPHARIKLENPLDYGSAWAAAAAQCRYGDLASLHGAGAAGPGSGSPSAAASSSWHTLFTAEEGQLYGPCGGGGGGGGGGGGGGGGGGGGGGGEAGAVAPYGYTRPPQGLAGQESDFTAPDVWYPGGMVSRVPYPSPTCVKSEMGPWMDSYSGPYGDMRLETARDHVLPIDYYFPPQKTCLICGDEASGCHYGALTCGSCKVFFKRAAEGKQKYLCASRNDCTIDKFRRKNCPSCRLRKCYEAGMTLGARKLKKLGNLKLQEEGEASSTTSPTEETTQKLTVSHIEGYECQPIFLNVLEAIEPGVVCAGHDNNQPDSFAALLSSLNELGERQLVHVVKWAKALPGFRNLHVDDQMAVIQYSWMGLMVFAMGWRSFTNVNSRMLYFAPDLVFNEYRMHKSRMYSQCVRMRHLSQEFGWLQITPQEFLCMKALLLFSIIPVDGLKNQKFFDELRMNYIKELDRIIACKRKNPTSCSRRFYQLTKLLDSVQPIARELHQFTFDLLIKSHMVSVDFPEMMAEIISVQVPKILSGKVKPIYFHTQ

Binding result, no binding:
UCUCUCUCUCUCUCUCUCUC (ssRNA) [(UC)10]
UUCUUUCUUUCUUUCUUUCU (ssRNA) [(UUCU)5]
CCCUCCCUCCCUCCCUCCCU (ssRNA) [(CCCU)5]

Source: patent US20190071668, “COMPOSITIONS AND METHODS FOR IDENTIFICATION, ASSESSMENT, PREVENTION, AND TREATMENT OF CANCER USING SLNCR ISOFORMS” (Dana-Farber Cancer Institute, Inc., published 2019)
